# ± gives the uncertainty stated by the source.
# Assay: protein stability index of a GFP-peptide fusion (yeast GPS) (PSI 1-4); higher = more stable; sorted into four equal gates, so the index is relative within each strain
# In short: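 For each peptide, the protein stability index sums the read frequency in every gate after multiplying it by the gate number. Read frequencies came from plasmids that were PCR-amplified from each gate and Illumina-sequenced, with reads assigned to strains by barcodes. The gates were four equal bins of GFP/Cherry fluorescence ratio applied to mid-log yeast in leucine-free medium carrying a pooled library of tiled 17-residue yeast protein peptides fused downstream of GFP on a Cherry-expressing plasmid.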
sequence,measurement,setting,value
KQVQDFEENDHPNRVLE [COR1],protein stability index,doa10∆,3.1 ± 0.074
same,protein stability index,pdr5∆,3.29 ± 0.1
same,protein stability index,san1∆,3.19 ± 0.056
same,protein stability index,ubr1∆,2.9 ± 0.065
DFLRYINIKYLRLDGHT [SNF2],protein stability index,doa10∆,2.5 ± 0.071
same,protein stability index,pdr5∆,1.32 ± 0.062
same,protein stability index,san1∆,1.4 ± 0.14
same,protein stability index,ubr1∆,1.65 ± 0.06
VTADTVILFDSDWNPQA [ISW2],protein stability index,doa10∆,3.08 ± 0.071
same,protein stability index,pdr5∆,2.76 ± 0.058
same,protein stability index,san1∆,2.81 ± 0.089
same,protein stability index,ubr1∆,2.52 ± 0.044
RTQFGGGKSVGFGLVYN [RPS24A],protein stability index,doa10∆,2.96 ± 0.065
same,protein stability index,pdr5∆,2.82 ± 0.05
same,protein stability index,san1∆,3.27 ± 0.047
same,protein stability index,ubr1∆,2.91 ± 0.055
ELLKSSLQKAGSKMEAK [AAR2],protein stability index,doa10∆,3.23 ± 0.077
same,protein stability index,pdr5∆,3.35 ± 0.085
same,protein stability index,san1∆,3.05 ± 0.079
same,protein stability index,ubr1∆,3.07 ± 0.079
DIENKEEEYDETHETNI [YAR002W/NUP60],protein stability index,doa10∆,3.34 ± 0.071
same,protein stability index,pdr5∆,3.21 ± 0.087
same,protein stability index,san1∆,3.42 ± 0.083
same,protein stability index,ubr1∆,3.33 ± 0.064
TIERSLIEEEVEQDEGQ [YCS4],protein stability index,doa10∆,3.36 ± 0.24
same,protein stability index,pdr5∆,3.27 ± 0.17
same,protein stability index,san1∆,3.28 ± 0.084
same,protein stability index,ubr1∆,3.5 ± 0.17
DEDDDLDEDDVNADDDD [RPB4],protein stability index,doa10∆,3.12 ± 0.1
same,protein stability index,pdr5∆,3.13 ± 0.086
same,protein stability index,san1∆,2.09 ± 0.16
same,protein stability index,ubr1∆,3 ± 0.11
KFNAAPEENATEGPSDK [SNF12],protein stability index,doa10∆,3.1 ± 0.16
same,protein stability index,pdr5∆,3.58 ± 0.14
same,protein stability index,san1∆,3.26 ± 0.081
same,protein stability index,ubr1∆,3.26 ± 0.098
VGRRAANLRVLNSYWVN [RPL15A],protein stability index,doa10∆,1.97 ± 0.062
same,protein stability index,pdr5∆,1.71 ± 0.072
same,protein stability index,san1∆,1.91 ± 0.11
same,protein stability index,ubr1∆,1.69 ± 0.07
DVNLDVRIHSIQVLTEA [IRR1],protein stability index,doa10∆,2.19 ± 0.15
same,protein stability index,pdr5∆,2.84 ± 0.2
same,protein stability index,san1∆,2.78 ± 0.18
same,protein stability index,ubr1∆,2.84 ± 0.13
HPSIYTQVFNILLQHKE [POP1],protein stability index,doa10∆,2.25 ± 0.083
same,protein stability index,pdr5∆,2.6 ± 0.074
same,protein stability index,san1∆,2.41 ± 0.08
same,protein stability index,ubr1∆,2.39 ± 0.044
SEHDKKRLSAALSKFLT [YML103C/NUP188],protein stability index,doa10∆,2.99 ± 0.09
same,protein stability index,pdr5∆,3.08 ± 0.09
same,protein stability index,san1∆,3.06 ± 0.068
same,protein stability index,ubr1∆,3.13 ± 0.071
QDVDDAHAIDQMTWRQW [POP8],protein stability index,doa10∆,2.1 ± 0.058
same,protein stability index,pdr5∆,1.99 ± 0.052
same,protein stability index,san1∆,1.78 ± 0.069
same,protein stability index,ubr1∆,2.5 ± 0.076
ISSLGYRSHIFATNEER [SWI3],protein stability index,doa10∆,2.3 ± 0.072
same,protein stability index,pdr5∆,1.96 ± 0.056
same,protein stability index,san1∆,2.34 ± 0.055
same,protein stability index,ubr1∆,2.33 ± 0.045
EAKSFQDEAELVEEKTP [RPC82],protein stability index,doa10∆,3.53 ± 0.12
same,protein stability index,pdr5∆,3.46 ± 0.14
same,protein stability index,san1∆,3.51 ± 0.14
same,protein stability index,ubr1∆,3.5 ± 0.1
ALNSMCASIPIAIIKDT [RRP46],protein stability index,doa10∆,1.48 ± 0.12
same,protein stability index,pdr5∆,1.67 ± 0.08
same,protein stability index,san1∆,1.8 ± 0.097
same,protein stability index,ubr1∆,1.79 ± 0.073
IKIEPSADDDVNNGNIP [SIR3],protein stability index,doa10∆,2.12 ± 0.098
same,protein stability index,pdr5∆,2.44 ± 0.14
same,protein stability index,san1∆,2.58 ± 0.15
same,protein stability index,ubr1∆,2.76 ± 0.13
SKTVVTLSEPVQGELKP [FAS1],protein stability index,doa10∆,2.56 ± 0.05
same,protein stability index,pdr5∆,2.73 ± 0.052
same,protein stability index,san1∆,2.5 ± 0.053
same,protein stability index,ubr1∆,2.18 ± 0.033
ELALIEEAYDNPHDTLN [PRP8],protein stability index,doa10∆,3.32 ± 0.088
same,protein stability index,pdr5∆,3.3 ± 0.077
same,protein stability index,san1∆,3.51 ± 0.076
same,protein stability index,ubr1∆,3.41 ± 0.07
EKLLRHVDSLIEDFVDG [SRB7],protein stability index,doa10∆,3.2 ± 0.08
same,protein stability index,pdr5∆,3.2 ± 0.083
same,protein stability index,san1∆,3.22 ± 0.061
same,protein stability index,ubr1∆,3.24 ± 0.057
ANDFQLTIVTCKQFPKL [SRB8],protein stability index,doa10∆,1.83 ± 0.047
same,protein stability index,pdr5∆,1.96 ± 0.041
same,protein stability index,san1∆,1.82 ± 0.073
same,protein stability index,ubr1∆,1.82 ± 0.034
KNEEAEIEVDEMEVDAE [RPN1],protein stability index,doa10∆,3.4 ± 0.14
same,protein stability index,pdr5∆,3.51 ± 0.11
same,protein stability index,san1∆,3.19 ± 0.12
same,protein stability index,ubr1∆,3.62 ± 0.1
IFSQTTNSTYNPASATD [YJL039C/NUP192],protein stability index,doa10∆,2.83 ± 0.054
same,protein stability index,pdr5∆,2.69 ± 0.071
same,protein stability index,san1∆,2.46 ± 0.054
same,protein stability index,ubr1∆,2.63 ± 0.046
MAQRTLKNKYESYDAAL [FAS2],protein stability index,doa10∆,3.147 ± 0.019
same,protein stability index,pdr5∆,3.059 ± 0.017
same,protein stability index,san1∆,2.999 ± 0.015
same,protein stability index,ubr1∆,3.064 ± 0.012
DWESDLHIHLNQILQTE [YDL116W/NUP84],protein stability index,doa10∆,2.69 ± 0.1
same,protein stability index,pdr5∆,3.07 ± 0.087
same,protein stability index,san1∆,2.77 ± 0.092
same,protein stability index,ubr1∆,2.81 ± 0.15
YYGLVIDLLLLGQERAT [PRP8],protein stability index,doa10∆,1.76 ± 0.083
same,protein stability index,pdr5∆,1.26 ± 0.053
same,protein stability index,san1∆,1.23 ± 0.11
same,protein stability index,ubr1∆,1.38 ± 0.039
IAVLRSKEWFQLDDEDF [FAS1],protein stability index,doa10∆,2.03 ± 0.041
same,protein stability index,pdr5∆,2.09 ± 0.041
same,protein stability index,san1∆,1.81 ± 0.058
same,protein stability index,ubr1∆,2.32 ± 0.038
DQIAVCEISGSIEQLRN [BRN1],protein stability index,doa10∆,3.27 ± 0.16
same,protein stability index,pdr5∆,3.26 ± 0.19
same,protein stability index,san1∆,3.11 ± 0.19
ENIEPLDPINLPLDSQD [PRP8],protein stability index,doa10∆,2.87 ± 0.078
same,protein stability index,pdr5∆,2.97 ± 0.089
same,protein stability index,san1∆,2.49 ± 0.11
same,protein stability index,ubr1∆,3.04 ± 0.067
LSKINAIQLDYSTANEY [RPN3],protein stability index,doa10∆,3.13 ± 0.084
same,protein stability index,pdr5∆,2.15 ± 0.066
same,protein stability index,san1∆,3.17 ± 0.085
same,protein stability index,ubr1∆,3.06 ± 0.062
GFSTGIGDTIADGPTMR [RPO21],protein stability index,doa10∆,2.3 ± 0.13
same,protein stability index,pdr5∆,3.15 ± 0.17
same,protein stability index,san1∆,3.03 ± 0.094
same,protein stability index,ubr1∆,2.99 ± 0.15
KNDTHYLLPDDFHFSTD [BRN1],protein stability index,doa10∆,2.81 ± 0.072
same,protein stability index,pdr5∆,3.19 ± 0.074
same,protein stability index,san1∆,2.9 ± 0.055
same,protein stability index,ubr1∆,2.95 ± 0.065
AEEDSLLSGEDLTLDDI [YJL039C/NUP192],protein stability index,doa10∆,3.62 ± 0.13
same,protein stability index,pdr5∆,3.4 ± 0.11
same,protein stability index,ubr1∆,3.43 ± 0.13
DETKGFDDNDSGNNYND [MED2],protein stability index,doa10∆,3.1 ± 0.055
same,protein stability index,pdr5∆,3.07 ± 0.058
same,protein stability index,san1∆,3.13 ± 0.053
same,protein stability index,ubr1∆,3.1 ± 0.048
CLTKFQDEEQTEHLTEL [YCG1],protein stability index,doa10∆,3.33 ± 0.13
same,protein stability index,pdr5∆,3 ± 0.15
same,protein stability index,san1∆,3.46 ± 0.075
same,protein stability index,ubr1∆,2.85 ± 0.11
VEDVSQNAADLQQICRV [RPL9A],protein stability index,doa10∆,2.96 ± 0.096
same,protein stability index,pdr5∆,3.42 ± 0.047
same,protein stability index,san1∆,2.76 ± 0.093
same,protein stability index,ubr1∆,3.03 ± 0.051
MEETEQKKIQINKEMGE [SMC3],protein stability index,ubr1∆,2.49 ± 0.26
KGLVSQQLDSFNQFVDY [RPB2],protein stability index,doa10∆,2.64 ± 0.077
same,protein stability index,pdr5∆,2.52 ± 0.1
same,protein stability index,san1∆,2.41 ± 0.078
same,protein stability index,ubr1∆,2.6 ± 0.066
LFPEQQTKEIKTERVED [RPL6B],protein stability index,doa10∆,3.55 ± 0.074
same,protein stability index,pdr5∆,3.29 ± 0.079
same,protein stability index,san1∆,3.46 ± 0.061
same,protein stability index,ubr1∆,3.38 ± 0.063
TPYSNESGLVNADLDVK [RPO21],protein stability index,doa10∆,2.75 ± 0.054
same,protein stability index,pdr5∆,2.96 ± 0.073
same,protein stability index,san1∆,3.02 ± 0.056
same,protein stability index,ubr1∆,2.87 ± 0.046
QGLKLAKKHKLNAITLD [SMC3],protein stability index,doa10∆,2.4 ± 0.21
same,protein stability index,pdr5∆,2.64 ± 0.29
YESQTFSSKNEWRKSAI [PRP8],protein stability index,doa10∆,3.23 ± 0.076
same,protein stability index,pdr5∆,3.28 ± 0.063
same,protein stability index,san1∆,3.29 ± 0.06
same,protein stability index,ubr1∆,3.01 ± 0.059
LDSMIELFKDYKPGSIT [MED1],protein stability index,doa10∆,2.15 ± 0.074
same,protein stability index,pdr5∆,1.94 ± 0.047
same,protein stability index,san1∆,1.82 ± 0.1
same,protein stability index,ubr1∆,1.99 ± 0.052
LLSFVLGVVFGRGGSGW [YML031W/NDC1],protein stability index,doa10∆,2.33 ± 0.068
same,protein stability index,pdr5∆,2.28 ± 0.067
same,protein stability index,san1∆,2.31 ± 0.077
same,protein stability index,ubr1∆,2.37 ± 0.096
LDKLDEILYYQIKTLPE [AAR2],protein stability index,doa10∆,2.89 ± 0.13
same,protein stability index,pdr5∆,2.97 ± 0.14
same,protein stability index,san1∆,3 ± 0.13
same,protein stability index,ubr1∆,3.25 ± 0.15
LLTVTPGPRLLYENIAS [RPN10],protein stability index,doa10∆,1.86 ± 0.036
same,protein stability index,pdr5∆,1.92 ± 0.054
same,protein stability index,san1∆,1.95 ± 0.086
same,protein stability index,ubr1∆,1.82 ± 0.035
ELQGYIELSVPDRQSMD [SRB5],protein stability index,doa10∆,1.36 ± 0.23
same,protein stability index,ubr1∆,1.17 ± 0.21
QPAKEKGVTEKDAVDYS [RRP6],protein stability index,doa10∆,3.2 ± 0.21
same,protein stability index,pdr5∆,3.15 ± 0.17
same,protein stability index,san1∆,3.27 ± 0.091
same,protein stability index,ubr1∆,3.42 ± 0.062
YLFDEIDAALDKQYRTA [SMC3],protein stability index,doa10∆,2.88 ± 0.091
same,protein stability index,pdr5∆,2.77 ± 0.097
same,protein stability index,san1∆,2.61 ± 0.1
same,protein stability index,ubr1∆,3.12 ± 0.064
KEKAPTIIFIDELDAIG [RPT5],protein stability index,doa10∆,2.57 ± 0.068
same,protein stability index,pdr5∆,2.35 ± 0.041
same,protein stability index,san1∆,1.85 ± 0.11
same,protein stability index,ubr1∆,2.4 ± 0.052

# From the supplement of paper PMC9732359
